Tests used:
[1] = system: MS2 coat protein; experiment: apparent KD of MS2 coat protein, switch OFF state (with FMN for OFF switches, without FMN for ON switches); designed switch direction (-1 OFF switch, 1 ON switch): 1; higher = weaker reporter binding; settings: FMN input: 0 or 200 uM; Eterna round: R93 (includes R88 designs)
Procedure, shortened: (§1)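 In 100 mM Tris-HCl pH 7.5 with 80 mM KCl and 4 mM MgCl2, and without or with constant ligand, SNAP-549-labelled MS2 coat protein was titrated in twofold steps from 0.7 or 1.5 nM to 3 µM. Per-step times went from 0.8–1.5 h down to 10–20 min. The RNA switches were transcribed on-chip from Illumina sequencing clusters, and apparent KD is the per-design median of normalised cluster binding-curve fits.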

[2] = system: MS2 coat protein; experiment: apparent KD of MS2 coat protein, switch ON state; designed switch direction (-1 OFF switch, 1 ON switch): 1; higher = weaker reporter binding; settings: FMN input: 0 or 200 uM; Eterna round: R93 (includes R88 designs)
Procedure, shortened: as §1

Sequence | apparent KD of MS2 coat protein [1] [nM] | apparent KD of MS2 coat protein [2] [nM]
AUAAAACAUGAGGAUCACCCAUGUGAAAAUAUGGGAGGAUAUACGUAGACGAAAGUCGACGUAGAAGGCCUAAAAG [Same State 1.4n.2 (Mat - Mod of Eli - )] | 81.8 | 28.8
CGGAGACAUGAGGAUCACCCAUGUGAGAAGAGGCGAGGAUAUCGAAAGAAAGAAGAGAAACGAGAAGGCGCGAGUA [salish99-SS1-066] | 31.9 | 20.3
AAAAAAAAGGGUGAGGAUAUCGAAAAAAAAACAUGAGGAUCACCCAUGUGAAAAAAAAAAAAAUGCGAGAAGGCACUAAAAAAAAA [Same State 2.3] | 104 | 23.2
AGGAGACAUGAGGAUCACCCAUGUGAGAAGAGGCGAGGAUAUCGAAAGAAAGAAGAGAAACGAGAAGGCGCGAGCA [salish99-SS1-020] | 37.1 | 19.7
GAUAAACAUGAGGAUCACCCAUGUAGAAAUAUGGGAGGAUAUACGAAGACGAAAGUCAAAGUAGAAGGCCUAAAAG [Mat - Same State 1 - Eli mod - D114] | 52.6 | 23.9
AAUCCAAAUAGUUAGGAUAUGGGAAUUAAAACAUGAGGAUCACCCAUGUAAUUGAAACAAGUUAACCAGAAGGGACAGGGUGAAA [JR_SS002_Sub209] | 46.1 | 68.8
UAUAGACAUGAGGAUCACCCAUGUAGAAUUAUGGGAGGAUAUACAAAGACGAGAGUCAGAGUAGAAGGCCUAGGAA [salish99-ss1-152] | 55.7 | 24
GAACCACAUGAGGAUCACCCAUGUCUAAAUAUGGGAGGAUAUGCACAAAAGGAAAUAACUGCAGAAGGCCUACGAA [62%, Redo, 3] | 135 | 25.7
GGAGUACAUGAGGAUCACCCAUGUUGGAACAAAGUAGGAUAUGUACAAUAUUAAAUAAAAACAGAAGGACUAAGAA [Gold Rush] | 37.1 | 23.3
UGAAAACAUGAGGAUCACCCAUGUAGAAAUAUGGGAGGAUAUACGAAGACGAAAGUCAAAGUAGAAGGCCUAAAUG [Mat - Same State 1 - Eli mod - D110] | 72.1 | 27.6
AAAACACAUGAGGAUCACCCAUGUAAAAACAUGAGAGGAUAUGCAUAGAAAAAAAACUAUGCAGAAGGCUCAUGUG [SS1 - 5] | 29.1 | 20
AAAGGGAUUACGGAGGAUAUGGAAAAAAAAACAUGAGGAUCACCCAUGUCAAAAAAAAAAAAGGACCAGAAGGCCGUAAUCUCAAA [hsl_samestate2] | 22.6 | 19.9
GGGAAGAAGAGAGAGGAUAUCCAAAGGAAAACAUGAGGAUCACCCAUGUAAAAGGUAGGAAAUUGGGAGAAGGCUCAAAAGAGGG [salish99-ss2-032] | 39.4 | 29
GGGAGGAAGAGAGAGGAUAUCCAAAGGAAAACAUGAGGAUCACCCAUGUAAAAGGUAGGAAAUUGGGAGAAGGCUCAAGAGAGGG [salish99-ss2-051] | 28 | 23.6
AAUACACAUGGUCAGGAUAUCGCAGCUAGGACAUGAGGAUCACCCAUGUCGUAAGUAAAAGUAAAUGAGAAGGGACAGGGUGACC [JR_SS002_Sub406] | 28.2 | 133
AUAAAAGAAGCGAAGGAUAUCCAAAACUCAACAUGAGGAUCACCCAUGUAAAGAAAGAAAAAAUGGGAGAAGGUCGCAAAGAAUA [73%, More Fisker Same State 2, D3, 10] | 26.7 | 11.8
GAACCACAUGAGGAUCACCCAUGUCAAAGAAAUCAAGGAUAUGCACAAAAGGAAAUAACUGCAGAAGGUGAACGAA [62%, Redo, 1] | 40.9 | 22.6
AAACAGAUAGGACAGGAUAUGUCGUGAUAAACAUGAGGAUCACCCAUGUGAGACAUCACGUAAUCGCAGAAGGGUCCCGUCUUAC [Usonsoave] | 12.7 | 11.1
GAAAAACAUGAGGAUCACCCAUGUAAAAAUAUGGGAGGAUAUUGAAAGACGAAAGUCAAACAAGAAGGCCUAAAAG [Garnet 2] | 119 | 22.2
GGUACAUCUAGUUAGGAUAUCAGGUGUAAGACAUGAGGAUCACCCAUGUCCUAAGAACAGGUAACUGAGAAGGAACAGGGAGUCC [JR_SS002_Sub416] | 133 | 64.6
AAUAUAUUAAGUGAGGAUAUCAUAGGAAAAACAUGAGGAUCACCCAUGUGGGAAACCUGGUCGGGUGAGAAGGUACUUAAUAUAU [Samwise Clockwise 31 - Jieux - Same State 2] | 175 | 69.2

Sequence | apparent KD of MS2 coat protein [1] [nM] | apparent KD of MS2 coat protein [2] [nM]
AAAUAAAGGACUGAGGAUAUACCACAUGAAACAUGAGGAUCACCCAUGUAAUAAUACAAAGGGUGGUAGAAGGUAGUCCACAAACA [so let's mod Hyphema] | 26.8 | 14
UAUAAACAUGAGGAUCACCCAUGUAGAAAUAUGGGAGGAUAUACAAAGACGAAAGUCAAAGUAGAAGGCCUAAUAA [Mat - Same State 1 - Mod - D156] | 89.4 | 16.6
AGAAGACAUGAGGAUCACCCAUGUGGGAUUAUGGGAGGAUAUACAAAGACGAGAGUCAGAGUAGAAGGCCUAGGAG [salish99-ss1-114(!)] | 66.4 | 45.4
AGAAAACAUGAGGAUCACCCAUGUAGGAAUAUGGGAGGAUAUACAAAGACGAAAGUCAGAGUAGAAGGCCUAGGAA [salish99-SS1-089] | 71.5 | 20.7
AAAACACAUGAGGAUCACCCAUGUGAAAACAUGGGAGGAUAUGCAUGGAAAACAUGCUAUGCAGAAGGCUCAUGUG [SS1 - 7] | 62.6 | 83.8
AGAAUAAAAACAGAGGAUAUCCAAAAGAAAACAUGAGGAUCACCCAUGUAAAAGAAAAUAAAAUGGGAGAAGGCUGAAAAAAAGA [Mat - Same State 2 - Eli mod - D98] | 39.3 | 25
AGGAAACAUGAGGAUCACCCAUGUAUAAAAAUGGGAGGAUAUACAAAGACGAAAGUCAAAGUAGAAGGCCUAAAAA [76%, Meechl, 7] | 51.5 | 18.8
AGGAAACAUGAGGAUCACCCAUGUAAAGAUGGGCGAGGAUAUCGAAAGAAAAGAAAGAAACGAGAAGGUGCAAAAG [59%, Flamingo, 1] | 251 | 409
GGAAAACAUGAGGAUCACCCAUGUGAAAACGUGGGAGGAUAUCGAUGGAAACCAUACUGUCGAGAAGGCCCAUGUC [EteRNA is fun!] | 47.2 | 18.5
AAAACACAUGAGGAUCACCCAUGUGCAAAAUUCGCAGGAUAUUCCUCAAUUAAAUGAGAGGAAGAAGGGUGAUAAA [Nob's Hobby 33 - Jieux - Same State 1] | 53.4 | 18.9
UGGAGACAUGAGGAUCACCCAUGUGAGAAGAGGCGAGGAUAUCGAAAGAAAGAAGAGAAACGAGAAGGCGCGAGUG [salish99-SS1-042] | 46.9 | 40.3
AACAAUCUAUCUGAGGAUAUCAUGUCAAAGACAUGAGGAUCACCCAUGUCGCAGGAAACUGCUCAUGAGAAGGCAGAUAGAUUGA [SS2: 1128] | 17.2 | 11.2
CUGGACAUAGUAUAGGAUAUAUGAAUAAUUACAUGAGGAUCACCCAUGUCCAUUUAUAUGGGAACAUAGAAGGGUGGUAGUUAAG [Mat - Same state - Malcolm Mod - D142] | 97.6 | 147
AAGAAACAUGAGGAUCACCCAUGUAGAAACAUGGGAGGAUAUACAAAGACGAAAGUCAAAGUAGAAGGCCUAAGAA [Mat - Same State 1 - Mod - D164] | 63.5 | 102
AACAAUCUAUCUGAGGAUAUAUGUCGAAAGACAUGAGGAUCACCCAUGUGAAAACAUGAAAAGACAUAGAAGGCAGAUAGAUUGA [SS2: 1131] | 47.3 | 27.4
AAAAGACAUGAGGAUCACCCAUGUAAAAACGUGGGAGGAUAUGCAUGGAAAACAUGCUGUGCAGAAGGCCCGUGUC [SS1 - 22] | 200 | 263
UGAAGACAUGAGGAUCACCCAUGUGGGAUUAUGGGAGGAUAUACAAAGACGAGAGUCAGAGUAGAAGGCCUAGGAG [salish99-ss1-118(!)] | 67.9 | 39.5
AAAGUGCCGACGAAGGAUAUAGCGGGUGAGACAUGAGGAUCACCCAUGUAUGCAGAACUCAUCCUCUAGAAGGUUGAGACGGCUA [Bionlateat] | 138 | 488
AGAAAUAAAAGAGAGGAUAUCCAAAAGAAAACAUGAGGAUCACCCAUGUAAAAGAAAAUAAAAUGGGAGAAGGCUCAUGAUAAAG [JL In the Red Helter Skelter 2 mod 1] | 35.8 | 42
AGAAAUAAAGCUGAGGAUAUCCAAAACCAAACAUGAGGAUCACCCAUGUAAAAGAAAAUAAAAUGGGAGAAGGCAGCAAAUAAGA [Designing denovo 8] | 21.9 | 12.5
AAAAUAUAAACGGAGGAUAUCCAAAGAACCACAUGAGGAUCACCCAUGUAAAGAAAGAAUAAGUGGGAGAAGGCCGAAAUAAUAA [Designing denovo 27] | 56.9 | 18.9

Reference: the supplement of paper PMC9170038
